Sequences and labels used below:
B1: CD59 (immobilized for SPR) (receptor)
chain: LQCYNCPNPTADCKTAVNCSSDFDACLITKAGLQVYNKCWKFEHCNFNDVTTRLRENELTYYCCKKDLCNFNEQLEN

Targets include CP-04; CP-03; CP-02; CP-13 (N-terminal Ac-D-Tyr cyclized to a C-terminal Cys (thioether macrocycle)); rILYd4 (Streptococcus intermedius, UniProt Q9LCB8 1-532).
Common to all, as to assay: SPR
In assay [1] the target is B1.
Assay [2] deals with B1.

Bridge positions count the residues as written; N and C are the ends. Square brackets hold non-standard residues; d marks the D form. Ends that are not written are not given here.

As for {CH2CO}-[dY]SWTWGNRSSVRGC (thioether N-14) [CP-06], the koff – broadly, the first-order rate constant of dissociation – in assay [1] is 0.0204 s⁻¹. For the same molecule, the Kd – broadly, the free concentration of one partner at which half of the binding sites on the other are occupied at equilibrium, for simple one-to-one binding – in assay [2] stood at 11.3 nM.
On to B1, for which the Kd amounted to 11.9 nM in the assay with CP-04; 23.4 nM in the assay with CP-03; 15.3 nM in the assay with CP-02; 10.8 nM with CP-13; 48.3 nM with rILYd4.

The values above are taken from article PMC12207370 (2025).
